Experimental data published in the DeepSol protein solubility set.

assay: soluble on expression in E. coli; label from the status in PepcDB or PDB records

Question: For “MSLHASAIESIETIIVDLPTIRPHKLAMHTMQNQTLVLIRLRCADGIEGLGESTTIGGLAYGNESPDSIKTNIDRFVAPLLIGQDASNINAAMLRLEQSIRGNTFAKSGIESALLDAQGKRLGLPVSELLGGRVRDALPVAWTLASGDTAKDIAEAQKMLDLRRHRIFKLKIGAGEVDRDLAHVIAIKKALGDSASVRVDVNQAWDEAVALRACRILGGNGIDLIEQPISRNNRAGMVRLNASSPAPIMADESIECVEDAFNLAREGAASVFALKIAKNGGPRATLRTAAIAEAAGIGLYGGTMLEGGIGTLASAHAFLTLNKLSWDTELFGPLLLTEDILAEPPVYRDFHLHVSKAPGLGLSLDEERLAFFRRDKTTPVLHHTEGHHHHHH”, which “soluble on expression in E. coli” value is on record?
Answer: soluble

Question: With “MSLIIKNAKVVTHDMQLKEPWAIAGHVHDSIKNTFITLEDSEGNIGIGSCATQNDSEESVKECFDILESFSSSLVGKELGLNENTFGWIASELPLNTEANAAVDIAIHDLWAKREEKTLVDALGKKHQSFDTSITIGVASLEKTIEMAKKHIGNGFSILKIKIGDCVEEDIERMKALFELKPEKIKIRVDANRGYSKEELIKFYEKTLHLGLELIEQPMEVDQNNEMLYFPEEIRKICVADESLQNFDDAVRLLKEPKPFGVFNIKLMKCGGVFAAKKIASLAEENGIELMWGCFDESKISISAALHTALSCENTRYIDLDGFFDLGWDLIEGGYRCENGIMSAIERPGLGVFSEGHHHHHH” as the sequence, how does the “soluble on expression in E. coli” value read?
Answer: soluble

Question: With “MNIQLSPLEARVIGCLIEKEVTTPDHYPLTLNSLTTACNQKSNREPVLNLSEAEVQDTVEGLIARRLVSDESSFNSRTSKYQHRFCNTEFGDLKLNQQELGLICCLLLRGAQTPGELRTRTNRLCTFTDVKETEAVLERLANRDSGALVVKLPREPGKRESRYHHLFCGEVDMAA” as the sequence, how does the “soluble on expression in E. coli” value read?
Answer: soluble

Question: Which “soluble on expression in E. coli” value does the source give for “MKLTIIRLEKFSDQDRIDLQKIWPEYSPSSLQVDDNHRIYAARFNERLLAAVRVTLSGTEGALDSLRVREVTRRRGVGQYLLEEVLRNNPGVSCWWMADAGVEDRGVMTAFMQALGFTTQQGGWEKCG” here?
Answer: soluble

Question: For “MGSDKIHHHHHHMISTEYRPKSLLEEFVVCFYFNKSDNFEYADYANPTTNQEMFFNLGDDFELKNSIGQVTSQRSWISGLQSKSLPIKCSGRHITAGVIFKPWGLYAAFGINAKELANKTIYSKWLCDLSNELDNSEFSESQFFDLMEFNLLKSIKRSKMTKVMQKIVNEIEQENVFTLSEKLNRSKKTIIESFNKMIGLSPHKFYTLKCICETITLLQNNPTIKLTELAYNQGFYDQAHFIRVFKEHTGLTPKEFRNSIMKR”, which “soluble on expression in E. coli” value is on record?
Answer: not soluble

Question: With “MSLQKLAFSYVRFSSLKQRHGDSLKRQTDMVANWLLANPEYKLSGETSYQDLGKSGFSGAHLDNAFGRLLAAIENGAIPKGSAILIEQIDRAGRMEPMEMLPLLSRIVNAGVDLVTLDDGITYDRASVNSNHLFLLVAKVQQAHQYSDSLSRRLRAAYQTKRAKAAAGEGATRRMPLWIRDGKLRDDIAPFVTQVFEDYAAGIGERRILGRLKGQHPDFETISPSTFRRWLRNPVAVGRWNDIEDVWPAVVSKELWFRVQKRLTDGVKPKAASSKYLLSGLVKCARCGKNYCVGGQKGALTMLCVSRHRFGSGAGGCTNKRSIPYAVFDFIRSQTAHAALVRASQSQNLTASEKRQIEIDGELIELRKQSSHAAEGLVRYGMVKEITDVLDRVTDQIDRLEKERVMLQAVPAPATLDDMIDVENDLLDDDIVKLNALLQGVGYEMVVDDRTIVVCEASVFSTLQSQTYRYIGADRVTGTYKVTANDEVLHHLPNLDSKVQQDEYAEFLKKEARYESGELKRDEFRFNLETGEINREGHHHHHH” as the sequence, how does the “soluble on expression in E. coli” value read?
Answer: not soluble

Question: For “MWPAPRRVNLRSLGIAWPSPGGLDTLASNFPSEGCQNMNLYSLLSARAAGGKPVRVGLIGAGKFGSMVLAQAQRIAGFHMVAVADLNVGKARESFDRVGWPKERYDATSCADALKSGKTYVTDDVNELFACGEIECIIEATGHPLAGARHALGAIDHNKHVVMVNVEADVMVGPILAEKARAKGLIYSMAYGDQPALICELVDWARATGFEVVSAGKGMNFEPRYRYSTPDTVWSYFGWTDEEVAKGDFNPKMYNSFTDGTKAAIEMAAVANGTGLDCPDDGLAFPPAGLHDLARVFRPAADGGRMSRSGLVDIAASQEPDGREVFNNIRYGVFVTFKAHNDYARACFKQYGLLTDPSGWYASMWRPFHIIGLETSISVLSAVLRNEPTGCSKEFRGDAVATAKKDMQPGEMLDGEGGYAVWANAIPATRSLDIKALPIGLAHNVKLKRPIKKDQIVSFDDVELVSDLDVVKLRQDMEHQFRPQKDAAA”, which “soluble on expression in E. coli” value is on record?
Answer: not soluble

Question: For “MSELIRVPDIGNGEGEVIELLVKPGDKVEADQSLLTLESDKASMEIPSPKAGVVKSIKAKVGDTLKEGDEILELEVEGGEQPAEAKAEAAPAQPEAPKAEAPAPAPSESKPAAPAAASVQDIKVPDIGSAGKANVIEVMVKAGDTVEADQSLITLESDKASMEIPSPASGVVESVSIKVGDEVGTGDLILKLKVEGAA”, which “soluble on expression in E. coli” value is on record?
Answer: not soluble

Question: For “MGSDKIHHHHHHMSIVEEQAQAGAASTSGSLLDDIMAQARISPVDEGYSVAKQGIAALVANILDSGNAAEPVNKALVDSMIVELDKKLSKQIDVILHAKELQELESSWRSLKLLIDRTDFRENIKLLVLHATKEELLEDFEFAPEISQSGFYKHVYSSGYGQFGGQPIGGVIGDYAMTQSSPDIKLMQYVSAVGAMAHAPFISSVAPTFFGVDRFTDLPSIKDLKSVFEGPAYTKWRSLRESEDGRYLGLTAPRFLARLPYDPVENPIKGFNYKEDISTDHEHYLWGNTAYLMGTALTDSFAKYRWCPNIIGPQSGGAITDLPVHVYQAMGQLQAKIPTEVLITDRREYEMAEEGFITLTMRKDSDNAAFFSANSVQKPKVFPNTKEGKEAETNYKLGTQLPYMFIINRLAHYIKVLQREQIGSWKERQDLERELNTWIKQYIADQENPPADVRSRRPLRAAQIKVLDVEGEPGWYQVTMSVRPHFKYMGANFELSLVGRLDKE”, which “soluble on expression in E. coli” value is on record?
Answer: not soluble

Question: For “MEVVLHEGDAKDWVYKGEGAANLILSYTGSSPSMLGKVLRVKKILKDKGQPAPNCIVFSSHEEHLWGKIPGLLESVKNDCLPQAYATIVMSQHLGANHVDGGVRVRVSKNFFELAGKNVLDNRPAWRVNASAIDAGADSALLISDHTLFSGNPRGSSCIAVEIKAKCGFLPSSEYISKENSIKKQVTRYKMHQHLKFHLGEISKTSEYDPLDLFSGSKERIHMAIKSFFSTPQNNFRIFVDGSLVFGGMGGGADSVHPNETEKCLEDLSKVTGLQLSDFIELLSEAIFKSGVLGKLLATQKLDDHDIEGAIHLYYNIISQPCLVCKSITDTELLRKYSTLHSLPLDKSEKIVRDFLISATAKDCSLMISFRPRQSGTTDSEYDSVFLDSVNQSYDYKAYFIDLDVKPLDKMVLLPSRENV”, which “soluble on expression in E. coli” value is on record?
Answer: soluble

Question: Which “soluble on expression in E. coli” value does the source give for “QMCSSLMIIAFDFDGTLVDSYSCIEEAFYRALKRTYPWLPGKRYIAKLLTKLELQFERPKFGKHGRKIKPPMKIFQGKFARAWFEERAKLTKPLDGAREVLERLKEDGHIVISFSAEDFIPGIKEYRLKISGLYDLFDDVIIFGRDITICEAFSIVREKYGYDTFVWVDDKPWRFIGRGDENTEYVWMYFPYTARFVSDDILAQIPHLHVIYDLWSLLDVVKNLK” here?
Answer: not soluble

Question: For “MANSETSLQARLWKTLSQSPDVRLWRNNVGTCKAADGRFVRFGLCPGSSDLIGLTRVTITPDMVGQTIALFTAIEVKTPTGRVTPEQQSFIDFVQRSGGRAGVARSMQDANKIISGEGHVLEHHHHHH”, which “soluble on expression in E. coli” value is on record?
Answer: not soluble

Question: For “MSLKHSKIRIAHISDIHIGSRLDKLPQKMVNKIIEENPDLVVITGDLIDSHNVISTDLASFNAFKERNIPIYYTIGNHDIMAGEEYVSSILEYYGIIYLKNQVTQITIGDETIQLVGIDDVQSITKYNEIFNSITPSIHNNIYTILLHHRPQGYKTSVQSGQIDLQLAGHTHDGQVFPFNYIVPLFHSKSYGMYHIKDTSKELILYTHPGSCAWGPHFRTAAKNLITIFSIESSNEGHHHHHH”, which “soluble on expression in E. coli” value is on record?
Answer: soluble

Question: Which “soluble on expression in E. coli” value does the source give for “MGSSHHHHHHDYDIPTTENLYFQGHMKIGIMSDTHDHLPNIRKAIEIFNDENVETVIHCGDFVSLFVIKEFENLNANIIATYGNNDGERCKLKEWLKDINEENIIDDFISVEIDDLKFFITHGHHQSVLEMAIKSGLYDVVIYGHTHERVFEEVDDVLVINPGECCGYLTGIPTIGILDTEKKEYREIVL” here?
Answer: soluble

Question: Which “soluble on expression in E. coli” value does the source give for “MLYPDTGRRSLVQYLSGSTGEPDGRTENRRMFMDTIGEAVLRSCQPYVRTVFNSVVVLNIMRTTHIVSMDVAHLANISASGQMFNYSLSFLGMKHVILMLWRCW” here?
Answer: not soluble

Question: For “MVSGGTFNAGVEKIRPGIYTNFKAAAAERTKAGERGTVALPLAASWGAAKEFVEINKEEDVEKKLGLSLAHQSFLLLRETLKLAKTVLVYRLNDGIKATATLATDVVVTAKYGGIVGNSITIKVDENVVDSSKKDVTTYLNEVAVDKQVVGTASELIDSNYVSFKTTSTSELQQSSGTTLVGGTDQPVTNLDYTQFLVSAEGEYFDTIAFPVSSSDVALKTSFVSFVKRMRDEQGVKIKGVVANMPADYEGIINVRNGVTLRDGTILEPHQVVAWVAGADASASMLKSNTFVKYDGAIDATPRLANDEAEEALQNGEFVLTFDARDKAVYVEQDLNSLTTFSKEKSSKFRKNKISRILDGINNDTRRNILDAIKERKDANTDIPADENGVQFILSMQTAYLNELQDSGAITNFDSTADITVSLNNNVDGFIVNQSIEPVDSGEKFYFTTEVKLEHHHHHH”, which “soluble on expression in E. coli” value is on record?
Answer: soluble

Question: For “MGSDKIHHHHHHMDSMQTTETFQVLKIGADAYIKRRNQRLLSNHRKDLRKFTRAEAFTYLDIDAKTLDKYVATADFDPRRHEDSQWLINIEEMYQLRDLLPENLRKASKFKRSDNQKMQVIVIQNQKGGVGKTVSAATIASGLATEFHQEYRVGLIDMDGQATLSMYYAPEADLEGCLSVGDLMMNNFDLDEGETLEQVVSNAFLPTTIPNLRILPASQSDRAIEGWFHEQVFGQKLTSPYSLLNTIINAVQDEFDIIIIDTPPSLGYATYNAYFAATSVVFPLSITENDIDATCSYFSYIPQVWALLANANHRGYDFMKILITNHRDSATTTDLMNTLYDHFAPYMYSNEFKHSEAIRQSSSLLSTVFDMSKSEYPKSKATFQSAQQNCYEVTSQVLRDIVNVWREQEQA”, which “soluble on expression in E. coli” value is on record?
Answer: not soluble

Question: For “MGSDKIHHHHHHMQQAHNDGVVSAMSQATDARLAAQDLARQLLHPHLGFVLFFCSAEYDLQALGEALEQDFGGIRLVGCTSAGEITPLGYGRNCVTAVGFDHRHFSIATALIDEMERFSLIDAQQMVERLVGTCRSNTLAPIKGHSFALTLLDGLSSREEMVLAALSAALGDIPHFGGSAGDDNYLNRTHVYYGGAFHNGAAVVVLVNTWLDFEVFTTHHILPRQEKLVVTGADSAQRRVFELNAEPAAEEYARHIGVPVAALDHRVFAAHPLAVRIHDQYYVRAIQQMHPDLSLSFYCAVENGIVLTAMTPGPLLPNLHQLFDGLHQRLGPLLLTIGCDCFLRRLELEAHRGLEPVGAFLREQRVIGFNTYGEQFNGMHINQTFTGVAIARNRPPVGR”, which “soluble on expression in E. coli” value is on record?
Answer: not soluble

Question: With “MGHHHHHHSHMAFMVKSMVGGQLKNLTGSLGGGEDKGDGDKSAAEAQGMSREEYEEYQKQLVEEKMERDAQFTQRKAERATLRSHFRDKYRLPKNETDESQIQLAGGDVELPRELAKMIEEDTEEEEDKASVLGQLASLPGLDLSSLKDKAQTTLGDLKQSAEKCHIM” as the sequence, how does the “soluble on expression in E. coli” value read?
Answer: not soluble
